# The RNAGym collection of RNA variant scans (doi:10.1073/pnas.2313332121)
# Variants at the floor of the assay were thinned out.
# B1: TPR 5TU (parent)
# chain: GGAUCUUCUCGAUCUAACAAAAAAGACAAAUCUGCCACAAAGCUUGAGAGCAUCUUCGGAUGCAGAGGCGGCAGCCUUCGGUGGCGCGAUAGCGCCAACGUUCUCAACUAUGACACGCAAAACGCGUGCUCCGUUGAAUGGAGUUUAUCAUG
# Variants of: B1
# Assay: polymerase ribozyme fitness, log enrichment relative to wild type (log ratio); higher = more active; in vitro selection for triplet polymerase activity
# How it was run: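 Mutant libraries were PCR-built and transcribed for each subunit of a heterodimeric triplet polymerase ribozyme and selected for one round in triplicate at −7 °C, frozen, before gel excision of extended constructs and streptavidin-bead capture. Input and output libraries were Illumina-sequenced, keeping genotypes with ≥10 input reads and ≥1 read per output. Fitness is a logarithmic ratio of genotype to wild-type enrichment, in base 2, using inverse-variance-weighted replicate averages.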
row,Variant,polymerase ribozyme fitness (log ratio)
1,A49C G50U U78G C85U A97G U102G A107U A142C,≤ -4.2
2,G50U G126C A138U,≤ -4.2
3,A49U C54U G88C U90A C114U A142C,≤ -4.2
4,A49C C57U G74U U90A C93G C95U C103G A138C,≤ -4.2
5,A49C A64U C75U C76U U135G,≤ -4.2
6,A49C G81A G92U C93U G140U G152C,≤ -4.2
7,G50A G88A C95U C123G U139G U151G,≤ -4.2
8,A49U U55A A106G,-0.994
9,G48A C96A,-1.51
10,G48A C96U,-0.356
11,A49U U55C U56A A73U C93U G117C,≤ -4.2
12,A49C G141U,-3.13
13,G50U G58A,0.88
14,A49G G58C,-0.689
15,G50A C79A,≤ -4.2
16,A49G C63A G71U G83U A122U A150U,≤ -4.2
17,A49C U55A G86A C99G A142U,≤ -4.2
18,G48A U55A,-1.14
19,G50A G88U U127C,≤ -4.2
20,A49C U145G,≤ -4.2
21,A49C A60G G67U C85U C93G A97G,≤ -4.2

row,Variant,polymerase ribozyme fitness (log ratio)
1,G50U A113C U139G,-3.93
2,G50C A89G C99U A122G,≤ -4.2
3,G50A C75U C96A A97U,≤ -4.2
4,A49C A66U,≤ -4.2
5,A49C A66G,≤ -4.2
6,G50U A60U C87U G94A U146A,≤ -4.2
7,G48C U61A U77A C125U U144A,≤ -4.2
8,A47U G83U A122U,-0.574
9,G50A C57U C76U C125U A142C U144G A150G,-3.98
10,A47U G81C C85G G86U C95U A106C G143A,≤ -4.2
11,G48C G62C C108G A137U U146A,≤ -4.2
12,G50C A52G U77A G128U A142U,≤ -4.2
13,G50U U78A,≤ -4.2
14,G48U A120U,-0.0736
15,A49C U56C,≤ -4.2
16,G50A C57G G81A C85U C116U,-2.31
17,G50C A66G C96U U146G,≤ -4.2
18,G50A C54U G80A U82G G88A G92A C93G U145A,≤ -4.2
19,G50U U61G C108U U135A,≤ -4.2
20,G50U A107C C132A,≤ -4.2
21,G50C U134A,-3.17

row,Variant,polymerase ribozyme fitness (log ratio)
1,G48A A73G C87G A89U C96A G136A,≤ -4.2
2,A47U U56A A122G U127C,-2.55
3,G50C A98G,-3.37
4,G48A C125U,-0.97
5,C51A C85A,-2.75
6,A49G A52C U56A A91G G92A A121G,-3.9
7,A49G C85U G117U U135C G143C,-4.06
8,G50U C95A U109G,-3.26
9,G48C C76A C93U G94A A138C G140A U146G,≤ -4.2
10,G48U U56A G67A A73C G86U A107G,≤ -4.2
11,G48C C96G C103G C105G A106G,-3.96
12,G50A A73U C87A U144A,≤ -4.2
13,G50C U90A,≤ -4.2
14,A49U G50A C85G C116G A121U,-1.16
15,G48U G59U,0.371
16,G50A U55A A97C A147U U148A,≤ -4.2
17,G48C G59C G92U C99G A106U,≤ -4.2
18,G48C A91U G143C,≤ -4.2
19,G48C G59A C85U C129A,-4.08
20,A49U C69U,-1.86
21,A49G G50U C87G U144G,≤ -4.2

row,Variant,polymerase ribozyme fitness (log ratio)
1,G50C A52C U77C C79A U101G A115U,≤ -4.2
2,A49U A66G G84A C87U A98G,≤ -4.2
3,A49U G58C G124U,-1.3
4,C51A A60G A89U,-1.65
5,G48A U56A C85U A110G G141U,≤ -4.2
6,C51A A52C C116U C118A A142U,≤ -4.2
7,G48A U127G,-3.5
8,G50C C123U,-2.4
9,G50U C87U,-1.51
10,G50C U56A G59C,-3.03
11,A49C U56A C69A C99A,≤ -4.2
12,G50A G128U,-3.21
13,G48U U55G C118G C131U A137C U145A,≤ -4.2
14,A49U A73G G86C A97U,≤ -4.2
15,C51A C63A U82A,-0.419
16,A49U C85A,-1.86
17,A49U C85U,-2.25
18,G48A C103A,-1.74
19,A49U C87A,≤ -4.2
20,G50A C85A,-3.59
